Measurements reported in US20180273587A1 (AILERON THERAPEUTICS, published 2018).
Starred links: 1 amine or outer side, 2 acyl side, 3 side chain; linkers in the order of their positions; H or OH if unused. Positions of bridges follow the written chain, without caps; N, C: chain ends. Non-standard residues stand in square brackets, D forms with d. St = two pentenyl-alanine olefin side chains, each crosslinked to another residue (stitch), C=CCCCC(CCCC=C)(N[*:1])C(=O)[*:2]; Phe(4-F) = N[C@@H](Cc1ccc(F)cc1)C(=O)O; 2Nal = N[C@@H](Cc1ccc2ccccc2c1)C(=O)O; hPhe = N[C@@H](CCc1ccccc1)C(=O)O; R8 = C=CCCCCCC[C@@](C)(N)C(=O)O; Cha = N[C@@H](CC1CCCCC1)C(=O)O; S8 = C=CCCCCCC[C@](C)(N)C(=O)O; S5 = C=CCCC[C@](C)(N)C(=O)O; Abu = CC[C@H](N)C(=O)O

B1: SEQ ID NO: 1737 (peptide)
peptide: Ac-IWIAAALK[R8]IGDAFN[S5]YYA-NH2
modifications: staple 9-16
SMILES: CC[C@H](C)[C@H](NC(C)=O)C(=O)N[C@@H](Cc1c[nH]c2ccccc12)C(=O)N[C@H](C(=O)N[C@@H](C)C(=O)N[C@@H](C)C(=O)N[C@@H](C)C(=O)N[C@@H](CC(C)C)C(=O)N[C@@H](CCCCN)C(=O)N[C@]1(C)CCCCCCC=CCCC[C@@](C)(C(=O)N[C@@H](Cc2ccc(O)cc2)C(=O)N[C@@H](Cc2ccc(O)cc2)C(=O)N[C@@H](C)C(N)=O)NC(=O)[C@H](CC(N)=O)NC(=O)[C@H](Cc2ccccc2)NC(=O)[C@H](C)NC(=O)[C@H](CC(=O)O)NC(=O)CNC(=O)[C@H]([C@@H](C)CC)NC1=O)[C@@H](C)CC
B2: SEQ ID NO: 1738 (peptide)
peptide: Ac-IWIAAALR[R8]I[Abu]DAFN[S5]YYA-NH2
modifications: staple 9-16
SMILES: CC[C@@H]1NC(=O)[C@H]([C@@H](C)CC)NC(=O)[C@](C)(NC(=O)[C@H](CCCNC(=N)N)NC(=O)[C@H](CC(C)C)NC(=O)[C@H](C)NC(=O)[C@H](C)NC(=O)[C@H](C)NC(=O)[C@@H](NC(=O)[C@H](Cc2c[nH]c3ccccc23)NC(=O)[C@@H](NC(C)=O)[C@@H](C)CC)[C@@H](C)CC)CCCCCCC=CCCC[C@@](C)(C(=O)N[C@@H](Cc2ccc(O)cc2)C(=O)N[C@@H](Cc2ccc(O)cc2)C(=O)N[C@@H](C)C(N)=O)NC(=O)[C@H](CC(N)=O)NC(=O)[C@H](Cc2ccccc2)NC(=O)[C@H](C)NC(=O)[C@H](CC(=O)O)NC1=O
B3: SEQ ID NO: 1742 (peptide)
peptide: Ac-IWIAQALR[R8]IGDAWN[S5]YYA-NH2
modifications: staple 9-16
SMILES: CC[C@H](C)[C@H](NC(C)=O)C(=O)N[C@@H](Cc1c[nH]c2ccccc12)C(=O)N[C@H](C(=O)N[C@@H](C)C(=O)N[C@@H](CCC(N)=O)C(=O)N[C@@H](C)C(=O)N[C@@H](CC(C)C)C(=O)N[C@@H](CCCNC(=N)N)C(=O)N[C@]1(C)CCCCCCC=CCCC[C@@](C)(C(=O)N[C@@H](Cc2ccc(O)cc2)C(=O)N[C@@H](Cc2ccc(O)cc2)C(=O)N[C@@H](C)C(N)=O)NC(=O)[C@H](CC(N)=O)NC(=O)[C@H](Cc2c[nH]c3ccccc23)NC(=O)[C@H](C)NC(=O)[C@H](CC(=O)O)NC(=O)CNC(=O)[C@H]([C@@H](C)CC)NC1=O)[C@@H](C)CC
B4: SEQ ID NO: 1783 (peptide)
peptide: Ac-IWIA[S5]ALR[St]IGDEFN[S8]YYA-NH2
modifications: staple 9-16, 5-9
notes: Row prints Ac-IWIA$ALRStIGDEFN$s8YYA-NH2
B5: SEQ ID NO: 1775 (peptide)
peptide: Ac-IWIAQALR[R8]IGDAFN[S5]AYA-NH2
modifications: staple 9-16
SMILES: CC[C@H](C)[C@H](NC(C)=O)C(=O)N[C@@H](Cc1c[nH]c2ccccc12)C(=O)N[C@H](C(=O)N[C@@H](C)C(=O)N[C@@H](CCC(N)=O)C(=O)N[C@@H](C)C(=O)N[C@@H](CC(C)C)C(=O)N[C@@H](CCCNC(=N)N)C(=O)N[C@]1(C)CCCCCCC=CCCC[C@@](C)(C(=O)N[C@@H](C)C(=O)N[C@@H](Cc2ccc(O)cc2)C(=O)N[C@@H](C)C(N)=O)NC(=O)[C@H](CC(N)=O)NC(=O)[C@H](Cc2ccccc2)NC(=O)[C@H](C)NC(=O)[C@H](CC(=O)O)NC(=O)CNC(=O)[C@H]([C@@H](C)CC)NC1=O)[C@@H](C)CC
B6: SEQ ID NO: 1755 (peptide)
peptide: Ac-IWIAQALR[R8]IGDAFN[S5]YLA-NH2
modifications: staple 9-16
SMILES: CC[C@H](C)[C@H](NC(C)=O)C(=O)N[C@@H](Cc1c[nH]c2ccccc12)C(=O)N[C@H](C(=O)N[C@@H](C)C(=O)N[C@@H](CCC(N)=O)C(=O)N[C@@H](C)C(=O)N[C@@H](CC(C)C)C(=O)N[C@@H](CCCNC(=N)N)C(=O)N[C@]1(C)CCCCCCC=CCCC[C@@](C)(C(=O)N[C@@H](Cc2ccc(O)cc2)C(=O)N[C@@H](CC(C)C)C(=O)N[C@@H](C)C(N)=O)NC(=O)[C@H](CC(N)=O)NC(=O)[C@H](Cc2ccccc2)NC(=O)[C@H](C)NC(=O)[C@H](CC(=O)O)NC(=O)CNC(=O)[C@H]([C@@H](C)CC)NC1=O)[C@@H](C)CC
B7: SEQ ID NO: 1756 (peptide)
peptide: Ac-IWIAQALR[R8]IGDAFN[S5]Y[Cha]A-NH2
modifications: staple 9-16
SMILES: CC[C@H](C)[C@H](NC(C)=O)C(=O)N[C@@H](Cc1c[nH]c2ccccc12)C(=O)N[C@H](C(=O)N[C@@H](C)C(=O)N[C@@H](CCC(N)=O)C(=O)N[C@@H](C)C(=O)N[C@@H](CC(C)C)C(=O)N[C@@H](CCCNC(=N)N)C(=O)N[C@]1(C)CCCCCCC=CCCC[C@@](C)(C(=O)N[C@@H](Cc2ccc(O)cc2)C(=O)N[C@@H](CC2CCCCC2)C(=O)N[C@@H](C)C(N)=O)NC(=O)[C@H](CC(N)=O)NC(=O)[C@H](Cc2ccccc2)NC(=O)[C@H](C)NC(=O)[C@H](CC(=O)O)NC(=O)CNC(=O)[C@H]([C@@H](C)CC)NC1=O)[C@@H](C)CC
B8: SEQ ID NO: 1759 (peptide)
peptide: Ac-IWIAQALR[R8]IGDAFN[S5]Y[2Nal]A-NH2
modifications: staple 9-16
SMILES: CC[C@H](C)[C@H](NC(C)=O)C(=O)N[C@@H](Cc1c[nH]c2ccccc12)C(=O)N[C@H](C(=O)N[C@@H](C)C(=O)N[C@@H](CCC(N)=O)C(=O)N[C@@H](C)C(=O)N[C@@H](CC(C)C)C(=O)N[C@@H](CCCNC(=N)N)C(=O)N[C@]1(C)CCCCCCC=CCCC[C@@](C)(C(=O)N[C@@H](Cc2ccc(O)cc2)C(=O)N[C@@H](Cc2ccc3ccccc3c2)C(=O)N[C@@H](C)C(N)=O)NC(=O)[C@H](CC(N)=O)NC(=O)[C@H](Cc2ccccc2)NC(=O)[C@H](C)NC(=O)[C@H](CC(=O)O)NC(=O)CNC(=O)[C@H]([C@@H](C)CC)NC1=O)[C@@H](C)CC
B9: SEQ ID NO: 1782 (peptide)
peptide: Ac-I[R8]IAQALR[St]IGDEFN[S8]YYA-NH2
modifications: staple 9-16, 2-9
notes: Row prints Ac-I$r8IAQALRStIGDEFN$s8YYA-NH2
B10: SEQ ID NO: 1754 (peptide)
peptide: Ac-IWIAQALR[R8]IGDAFN[S5]YAA-NH2
modifications: staple 9-16
SMILES: CC[C@H](C)[C@H](NC(C)=O)C(=O)N[C@@H](Cc1c[nH]c2ccccc12)C(=O)N[C@H](C(=O)N[C@@H](C)C(=O)N[C@@H](CCC(N)=O)C(=O)N[C@@H](C)C(=O)N[C@@H](CC(C)C)C(=O)N[C@@H](CCCNC(=N)N)C(=O)N[C@]1(C)CCCCCCC=CCCC[C@@](C)(C(=O)N[C@@H](Cc2ccc(O)cc2)C(=O)N[C@@H](C)C(=O)N[C@@H](C)C(N)=O)NC(=O)[C@H](CC(N)=O)NC(=O)[C@H](Cc2ccccc2)NC(=O)[C@H](C)NC(=O)[C@H](CC(=O)O)NC(=O)CNC(=O)[C@H]([C@@H](C)CC)NC1=O)[C@@H](C)CC
B11: SEQ ID NO: 1769 (peptide)
peptide: Ac-IWIAQALR[R8]IGDAFN[S5][Phe(4-F)]YA-NH2
modifications: staple 9-16
SMILES: CC[C@H](C)[C@H](NC(C)=O)C(=O)N[C@@H](Cc1c[nH]c2ccccc12)C(=O)N[C@H](C(=O)N[C@@H](C)C(=O)N[C@@H](CCC(N)=O)C(=O)N[C@@H](C)C(=O)N[C@@H](CC(C)C)C(=O)N[C@@H](CCCNC(=N)N)C(=O)N[C@]1(C)CCCCCCC=CCCC[C@@](C)(C(=O)N[C@@H](Cc2ccc(F)cc2)C(=O)N[C@@H](Cc2ccc(O)cc2)C(=O)N[C@@H](C)C(N)=O)NC(=O)[C@H](CC(N)=O)NC(=O)[C@H](Cc2ccccc2)NC(=O)[C@H](C)NC(=O)[C@H](CC(=O)O)NC(=O)CNC(=O)[C@H]([C@@H](C)CC)NC1=O)[C@@H](C)CC
B12: SEQ ID NO: 1758 (peptide)
peptide: Ac-IWIAQALR[R8]IGDAFN[S5]YWA-NH2
modifications: staple 9-16
SMILES: CC[C@H](C)[C@H](NC(C)=O)C(=O)N[C@@H](Cc1c[nH]c2ccccc12)C(=O)N[C@H](C(=O)N[C@@H](C)C(=O)N[C@@H](CCC(N)=O)C(=O)N[C@@H](C)C(=O)N[C@@H](CC(C)C)C(=O)N[C@@H](CCCNC(=N)N)C(=O)N[C@]1(C)CCCCCCC=CCCC[C@@](C)(C(=O)N[C@@H](Cc2ccc(O)cc2)C(=O)N[C@@H](Cc2c[nH]c3ccccc23)C(=O)N[C@@H](C)C(N)=O)NC(=O)[C@H](CC(N)=O)NC(=O)[C@H](Cc2ccccc2)NC(=O)[C@H](C)NC(=O)[C@H](CC(=O)O)NC(=O)CNC(=O)[C@H]([C@@H](C)CC)NC1=O)[C@@H](C)CC
B13: SEQ ID NO: 1757 (peptide)
peptide: Ac-IWIAQALR[R8]IGDAFN[S5]Y[hPhe]A-NH2
modifications: staple 9-16
SMILES: CC[C@H](C)[C@H](NC(C)=O)C(=O)N[C@@H](Cc1c[nH]c2ccccc12)C(=O)N[C@H](C(=O)N[C@@H](C)C(=O)N[C@@H](CCC(N)=O)C(=O)N[C@@H](C)C(=O)N[C@@H](CC(C)C)C(=O)N[C@@H](CCCNC(=N)N)C(=O)N[C@]1(C)CCCCCCC=CCCC[C@@](C)(C(=O)N[C@@H](Cc2ccc(O)cc2)C(=O)N[C@@H](CCc2ccccc2)C(=O)N[C@@H](C)C(N)=O)NC(=O)[C@H](CC(N)=O)NC(=O)[C@H](Cc2ccccc2)NC(=O)[C@H](C)NC(=O)[C@H](CC(=O)O)NC(=O)CNC(=O)[C@H]([C@@H](C)CC)NC1=O)[C@@H](C)CC

Assays:
Assay in all cases: Ki; method not stated; unit not printed (nM per Table 6)
[1] = target: T1, MCL-1 (UniProt Q07820 172-327, limits assumed)
T1 construct: Target of the Ki columns; also called Myeloid cell leukemia 1

[2] = target: T2, BCL-2 (UniProt P10415 1-217, limits assumed)
T2 construct: Target of the Ki columns

[3] = target: T3, BCL-XL (UniProt Q07817 1-209)
T3 construct: Target of the Ki columns
T3 sequence (Q07817 1-209): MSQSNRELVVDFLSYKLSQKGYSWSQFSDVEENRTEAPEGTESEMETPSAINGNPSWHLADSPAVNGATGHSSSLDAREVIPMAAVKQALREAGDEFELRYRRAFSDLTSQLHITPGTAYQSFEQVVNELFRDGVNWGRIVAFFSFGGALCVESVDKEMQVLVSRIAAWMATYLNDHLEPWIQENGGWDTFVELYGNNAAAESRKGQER

T1 sequence (Q07820 172-327 limits assumed): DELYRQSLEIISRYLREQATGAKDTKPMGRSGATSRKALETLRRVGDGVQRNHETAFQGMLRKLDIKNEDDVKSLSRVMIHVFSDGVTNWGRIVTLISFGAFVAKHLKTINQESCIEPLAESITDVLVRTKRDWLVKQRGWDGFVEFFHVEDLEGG
T2 sequence (P10415 1-217 limits assumed): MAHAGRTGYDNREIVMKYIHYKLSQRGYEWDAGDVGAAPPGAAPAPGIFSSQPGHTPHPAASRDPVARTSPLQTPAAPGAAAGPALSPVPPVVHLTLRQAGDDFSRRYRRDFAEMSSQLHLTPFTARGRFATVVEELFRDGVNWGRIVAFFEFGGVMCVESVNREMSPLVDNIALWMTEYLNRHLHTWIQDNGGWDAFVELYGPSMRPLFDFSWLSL

| Binder | Ki [1] | Ki [2] | Ki [3] |
| --- | --- | --- | --- |
| B1 | 23.2 nM | 25.6 nM | 11.7 nM |
| B2 | 106 nM | 131 nM | 112 nM |
| B3 | 2.3 nM | 17.7 nM | 14.5 nM |
| B4 | 1.6 nM | 19.2 nM | 1.6 nM |
| B5 | 5.3 nM | 112 nM | 12.6 nM |
| B6 | 23.4 nM | 18.9 nM | 9 nM |
| B7 | 24.1 nM | 28.9 nM | 8.6 nM |
| B8 | 8 nM | 65.2 nM | 26.1 nM |
| B9 | 1.1 nM | 22 nM | 1.1 nM |
| B10 | 20.3 nM | 102 nM | 51.8 nM |
| B11 | 14.9 nM | 200 nM | 26 nM |
| IWIAQALRAIGDAANAYYA (N-terminal Ac; $r8 at 9 and $ at 16 (crosslinked); 2Nal at 14; C-terminal NH2) [SEQ ID NO: 1746] | 4.4 nM | 35.1 nM | 19.1 nM |
| B12 | 3.9 nM | 23.5 nM | 15.4 nM |
| B13 | 8 nM | 30.7 nM | 12.1 nM |
